Where two headings read alike, the source gives them in different places. Oligonucleotides are written 5' to 3', each unit as a sugar letter and its base; * is a phosphorothioate linkage, no mark a phosphodiester; rarer units and linkages stand in square brackets, end groups in braces. Plain capitals give the bases only. d = 2'-deoxy (DNA); r = 2'-OH (RNA); f = 2'-fluoro
Tests used:
[1] = target: T1, human vWF A1 domain (SEQ ID NO 5) (Homo sapiens, UniProt P04275, T1381A); assay: 3-point dot blot screen, human vWF A1 domain; type: binding; settings: 100 nM human vWF A1 domain
Summary of the method: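 Values are ratios of aptamer fraction retained on nitrocellulose with 100 nM vWF A1 domain (human or rabbit) versus a no-protein control. Unique clones from rounds 9 and 12 pools were transcribed, desalted and 5'-32P labeled before this three-point dot blot screen.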

[2] = system: rabbit vWF A1 domain (SEQ ID NO 6); assay: 3-point dot blot screen, rabbit vWF A1 domain; type: binding; settings: 100 nM rabbit vWF A1 domain, ratio of fraction bound with target to without
Summary of the method: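 Rabbit vWF A1 domain binding was screened by dot blot using three conditions: no target protein, human vWF, and rabbit vWF A1 domain at 100 nM (20 nM in the screen run twice). Radiolabeled aptamer bound to nitrocellulose was quantified, and results are expressed as the ratio of bound fraction with protein to bound fraction without protein.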

[3] = system: full length human vWF binding to lyophilized platelets; assay: Full length human von Willebrand Factor platelet binding assay (FACS); type: cell-based; settings: 5 nM full length human vWF, lyophilized platelets, botrocetin; both bounds in nM
Protocol: The amount of vWF bound to fixed platelets can be measured with an antibody to vWF. The fluorescence signal from bound antibody incubated with a fluorescein conjugated secondary antibody is then detected and quantified by flow cytometry. The ability of an aptamer of the invention to block vWF binding to platelets is correlated with a reduction in fluorescence signal.
Aptamer potency to block human vWF binding to lyophilized platelets was assessed by flow cytometric analysis. Titrations of aptamers (0 nM, 0.1 nM to 1000 nM) were pre-incubated briefly with 5 nM of full length human vWF in FACS buffer (PBS plus 0.5% bovine serum albumin) at room temperature in a volume of 50 uL. Another 50 uL containing 5 uL of lyophilized platelets plus 1 uL of 0.1 U/uL of botrocetin in FACS buffer was added to aptamer/vWF. This reaction was allowed to proceed for 15 minutes at 37 degrees C. after which 200 uL of FACS buffer was added. Platelets were collected by a 6 minute spin at 1470 RCF and the supernatant was discarded. The pellets were resuspended in 100 uL of FACS buffer containing a 1:100 dilution of anti-vWF antibody and were incubated at room temperature for 30 minutes. After dilution with 200 uL of FACS buffer, the platelets were spun at 1470 RCF for 6 minutes and the supernatant was discarded. The pellets were resuspended in a 1:100 solution of anti-IgG2a-FITC antibody and were incubated in the dark for 30 minutes at room temperature. The entire 100 uL was diluted into 200 uL of FACS buffer and analyzed immediately by flow cytometric analysis in the FACSCAN. Artifactual data from contaminating debris was eliminated from the analysis by drawing a gate around the population of single and aggregated platelets. Mean fluorescent intensity (“MFI”) readings were quantified for each sample analyzed by flow cytometry. Background MFI was subtracted from all data points. Percent inhibition was reported by calculating the percent value of binding of full length human vWF to platelets in the presence of aptamer at a given concentration relative to binding in the absence of any aptamer (see FIG. 7). IC50 values were determined by fitting the percent inhibition of vWF binding to platelets as a function of aptamer concentration to the equation: % inhibition=% inhibitionmax/(1+IC50/aptamer conc.)

[4] = target: T1, human vWF A1 domain (SEQ ID NO 5); assay: dot blot KD determination, human vWF A1 domain
[5] = rRdY aptamers, ratio of fraction bound with target to without
[6] = read-out: Human A1 KD, rRdY aptamers, 6 point protein titration
[7] = rRfY aptamers, ratio of fraction bound with target to fraction bound without target
[8] = read-out: human A1 KD, rRfY aptamers, 8 point titration of human vWF A1 domain

T1 sequence (P04275 with tags, fused parts or gaps T1381A): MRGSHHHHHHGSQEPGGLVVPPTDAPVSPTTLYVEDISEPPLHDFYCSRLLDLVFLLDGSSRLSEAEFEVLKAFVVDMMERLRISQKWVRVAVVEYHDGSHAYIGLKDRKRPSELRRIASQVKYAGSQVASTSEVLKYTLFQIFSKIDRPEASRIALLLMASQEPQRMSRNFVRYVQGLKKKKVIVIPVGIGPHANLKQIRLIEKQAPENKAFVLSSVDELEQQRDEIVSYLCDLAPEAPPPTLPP
rabbit vWF A1 domain (SEQ ID NO 6), sequence (as listed by the source): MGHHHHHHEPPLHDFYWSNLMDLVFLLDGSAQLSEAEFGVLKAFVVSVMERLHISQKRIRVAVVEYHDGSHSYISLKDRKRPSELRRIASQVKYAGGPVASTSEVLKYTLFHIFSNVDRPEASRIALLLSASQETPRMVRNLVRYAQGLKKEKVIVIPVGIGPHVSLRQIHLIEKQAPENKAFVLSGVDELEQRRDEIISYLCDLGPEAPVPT

B1: AMX205.D11: rRdY aptamer clone (nucleic acid)
chain: rGrGrArGdCrGdCrAdCdTdCrArGdCdCrAdCrGrGdCrAdCrGrAdCrGrGdTrGrAdTrGrArAdTdTrArGdCrGdCrGrGdTrGdTdCrGrGdTrGrGdTrGdTdCrAdTdTdTdCrGrAdCdCdTdCdTdCdTrGdCdTrArGdC
- Screen- Human/No Protein [1, 5]: 2.22
- Screen- Rabbit/No Protein ([2]; rRdY aptamers): 2.07
- Inhibition of full length hVWF binding in FACS assay, IC50 range [3]: no activity
- Kd [4, 6]: 124 nM

B2: AMX205.H11: rRdY aptamer clone (nucleic acid)
chain: rGrGrArGdCrGdCrAdCdTdCrArGdCdCrAdCrGrGdCrAdCrGrAdCrGrGdTrGrAdTrGrGrAdTdTrArGdCrGdCrGrGdTrGdTdCrGrGdTrGrGdTrGdTdCrAdTdTdTdCrGrAdCdCdTdCdTdCdTrGdCdTrArGdC
- Screen- Human/No Protein [1, 5]: 2.18
- Screen- Rabbit/No Protein ([2]; rRdY aptamers): 2.41
- Inhibition of full length hVWF binding in FACS assay, IC50 range [3]: no activity
- Kd [4, 6]: 144 nM

B3: AMX198.G1: rRfY aptamer clone (nucleic acid)
chain: rGrGrArGfCrGfCrAfCfUfCrArGfCfCrAfCrArAfCrAfCfUrArAfUrGrGrGrGrArArArGfUfUfCrArArGrGrAfUfUfCfUfUrGrAfCfCrGrGfUrGfCrGfUfUfUfCrGrAfCfCfUfCfUfCfUrGfCfUrArGfC
- Screen- Human/No Protein [1, 7]: 1.89
- Screen- Rabbit/No Protein ([2]; rRfY aptamers): 1.90
- Inhibition of full length hVWF binding in FACS assay, IC50 range [3]: no activity
- Kd [4, 8]: 45 nM

B4: AMX206.A10: rRdY aptamer clone (nucleic acid)
chain: rGrGrArGdCrGdCrAdCdTdCrArGdCdCrAdCrGrGdCrAdTrGrAdCrGrGdTrGrAdTrGrArAdTdTrArGdCrGdCrGrGdTrGdTdCrGrGdTrGrGdTrGdTdCrAdTdTdTdCrGrAdCdCdTdCdTdCdTrGdCdTrArGdC
- Screen- Human/No Protein [1, 5]: 2.62
- Screen- Rabbit/No Protein ([2]; rRdY aptamers): 2.58
- Inhibition of full length hVWF binding in FACS assay, IC50 range [3]: no activity
- Kd [4, 6]: 111 nM

B5: AMX201.G1: rRfY aptamer clone (nucleic acid)
chain: rGrGrArGfCrGfCrAfCfUfCrArGfCfCrAfCrGfCfUfCrGrGfUrGrGrGrGrArArAfUfUfUfUrArGfCfCfUrArAfUfUrGrGfCfUrAfCfUfUrGfUrGfCrGfUfUfUfCrGrAfCfCfUfCfUfCfUrGfCfUrArGfC
- Screen- Human/No Protein [1, 7]: 2.14
- Screen- Rabbit/No Protein ([2]; rRfY aptamers): 2.20
- Inhibition of full length hVWF binding in FACS assay, IC50 range [3]: no activity
- Kd [4, 8]: 190 nM

B6: AMX206.H9: rRdY aptamer clone (nucleic acid)
chain: rGrGrArGdCrGdCrAdCdTdCrArGdCdCrAdCrGrGrArGdCrGdTdCrGrGdTrGrAdTrGrGrAdTdTrArGdCrGdCrGrGdTdTdCdCrGdTrGrGdTrAdCrAdCdCdTdTdTdCrGrAdCdCdTdCdTdCdTrGdCdTrArGdC
- Screen- Human/No Protein [1, 5]: 1.98
- Screen- Rabbit/No Protein ([2]; rRdY aptamers): 2.31
- Inhibition of full length hVWF binding in FACS assay, IC50 range [3]: no activity
- Kd [4, 6]: 109 nM

B7: AMX205.F9: rRdY aptamer clone (nucleic acid)
chain: rGrGrArGdCrGdCrAdCdTdCrArGdCdCrAdCrGrGrArGdCrGdTdCrGrGdTrGrAdTrGrGrAdTdTrArGdCrGdCrGrGdCdTdCdCrGdTrGrGdTrAdCrGdCdCdTdTdTdCrGrAdCdCdTdCdTdCdTrGdCdTrArGdC
- Screen- Human/No Protein [1, 5]: 2.22
- Screen- Rabbit/No Protein ([2]; rRdY aptamers): 2.47
- Inhibition of full length hVWF binding in FACS assay, IC50 range [3]: no activity
- Kd [4, 6]: 145 nM

B8: AMX206.F9: rRdY aptamer clone (nucleic acid)
chain: rGrGrArGdCrGdCrAdCdTdCrArGdCdCrAdCrGrGrArGdCrGdTdCrGrGdTrGrAdTrGrGrAdTdTrArGdCrGdCrGrGdCdTdCdCrGdTrGrGdTrAdCrAdCrAdTdTdTdCrGrAdCdCdTdCdTdCdTrGdCdTrArGdC
- Screen- Human/No Protein [1, 5]: 2.98
- Screen- Rabbit/No Protein ([2]; rRdY aptamers): 3.00
- Inhibition of full length hVWF binding in FACS assay, IC50 range [3]: no activity
- Kd [4, 6]: 139 nM

From patent US7998940B2, “Aptamers to von Willebrand factor and their use as thrombotic disease therapeutics” (Archemix Corp., priority 2004, dated 2011)
